Results from the nanobody polyreactivity screen of Harvey et al. (2022).

Experiment: yeast display, Sf9 membrane polyspecificity reagent, FACS + sequencing; frameworks hold sequencing errors
In short: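 Nanobodies came from a synthetic yeast display library in Saccharomyces cerevisiae BJ5465, induced with galactose for 36–48 hours and stained for 1 hour at 4 °C with 10% biotinylated, detergent-solubilized Sf9 membrane reagent. Cells were enriched on streptavidin microbeads and then FACS-sorted, with low and high (top ~1%) gates set on anti-HA fluorescence for expression and streptavidin fluorescence for reagent binding. Each polyreactivity label reflects the gate a clone came from. Genes were amplified by colony PCR, sequenced by MiSeq 2 × 250 and filtered by CDR length.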
In the case of “QVQLVESAGGLVQAGGSLRLSCAASGGIFDRYAMGWYRQAPGKERELVAAITSGGSTNYADSVKGRFTISRDNAKNTVYLQMNSLKPEDTAVYYCNADLGILSGVDEGPTFREYDYWGQGTQVTLSS”, the “polyreactivity (PSR sort gate)” value is reported as “low polyreactivity”. For “QVQLVESAGGLVQAGGSLRLSCAASGGTFSTYAIGWYRQAPGKEREFVAAITRSGTSTYYADSVKGRFTISRDNAKNTVYLQMNSLKPEDTAVYYCAAGVYSFRYDYWGQGTQVTVSS”, the “polyreactivity (PSR sort gate)” value was “low polyreactivity”. For “QVQLVESAGGLVQAGGSLRLSCAASGITFWYYTMGWYRQAPGKERELVAAINGRGGSTYYADSVKGRFTISRDNAKNTVYLQMNSLKPEDTAVYYCNAVGIWFQIRLIVPYDYWGQGTQVTVSS”, the “polyreactivity (PSR sort gate)” value was “low polyreactivity”. For “QVQLVESAGGLVQAGGSLRLSCAASGITIVRYARGWSRQAPGKERELVAAINRSGGSTYDADSVKGRFTISRDNAKNTVYLQMNSLKPEDTAVYYCAARLYGKYDPPGYYYWGQGTQVTVSS”, the “polyreactivity (PSR sort gate)” value was “high polyreactivity”. In the case of “QVQLVESAGGLVQAGGSLRLSCAASGLIFYSYAMGWYRQAPGKERELVASITTRGSSTYYADSVKGRFTISRDNAKNTVYLQMNSLKPEDTAVYYCAADRLYYRYPPDTGYGYWGQGTQVTVSS”, the “polyreactivity (PSR sort gate)” value is reported as “low polyreactivity”. In the case of “QVQLVESAGGLVQAGGSLRLSCAASGNMLIGKVMGMYRQAPGKERELVAAITSGGDTYYADSVKGRYTISRDNAKNTVYLQMNSLKPEDTAVYYCAADRPGQPKYEYWGQCTQVTVSS”, the “polyreactivity (PSR sort gate)” value is reported as “low polyreactivity”. With “QVQLVESAGGLVQAGGSLRLSCAASGPTFAYNDMGWSRQAPGKERELVAAISWSDGTTYYADSVKGRFTISRDNAKNTVYLQMNSLKPEVTAVYYCAGESYPSEVASYVSEYDYWGQGTQVTVSS” the “polyreactivity (PSR sort gate)” value was “low polyreactivity”. In the case of “QVQLVESAGGLVQAGGSLRLSCAASGRIFRYYAMGWYRQAPGKERELFAAISRSGASTYYADSVKGRFTISRDNAKNTVYLQMNSLIPEDTAVYYCAAGYWPGYSQTYRGGYWGQCTQVTVSS”, the “polyreactivity (PSR sort gate)” value is reported as “high polyreactivity”. For “QVQLVESAGGLVQAGGSLRLSCAASGRIFRYYVMGWYRQAPGKEREFVASISGRGASTYYADSVKGRFTISRDNAKNTVYLQMNSLKPEDTAVYYCNADVWLLSYFPEYDYWGQGTQVTVSS”, the “polyreactivity (PSR sort gate)” value was “low polyreactivity”. In the case of “QVQLVESAGGLVQAGGSLRLSCAASGRIFSYKAMGWYRQAPGKQRELVAAISYSGGRTYYADSVKGRFTISRDNAKNTVYLQMYSLKPEDTAVYYCAAEAHLAGFYRYYGGYGYDYWGQGTQVTVSS”, the “polyreactivity (PSR sort gate)” value is reported as “high polyreactivity”. For “QVQLVESAGGLVQAGGSLRLSCAASGRIFYYNAMGWYRQAPGKERELVAGITSRGGSTYADSVKGRFTISRDNAKNTVYLQMNSLKPEDTAVYYCAAVYRLWGKDYDYWGQGTQVTVSS”, the “polyreactivity (PSR sort gate)” value was “high polyreactivity”. With “QVQLVESAGGLVQAGGSLRLSCAASGRILVRNAMGWYRQAPGTERELVAAIRRGTSTNYADSVKGRFTISRDNAKNTVYLQMNSLKPEDTAVYYCAVRAASPYLDGAWRRRYDYWGQGTQVTVSS” the “polyreactivity (PSR sort gate)” value was “low polyreactivity”. For “QVQLVESAGGLVQAGGSLRLSCAASGRTFAYNAMGWYRQAPGKERELVADITSGGSTYYADSVKWRFTISRDNAKNTVYLQMNSLKPEDTAVYYCNKLYRGGYGYWGQGTQVTVSS”, the “polyreactivity (PSR sort gate)” value was “high polyreactivity”. With “QVQLVESAGGLVQAGGSLRLSCAASGRTFGKYAMGWYRQAPGKERELVAAITGGGGTKYADSVKGRFTISRDNAKNTVYLQKNSLKPEDTAVYYCAAASGSRRHGYWGQGTQVTVSS” the “polyreactivity (PSR sort gate)” value was “high polyreactivity”. For “QVQLVESAGGLVQAGGSLRLSCAASGRTLRGYAMGWYRQAPGKERELVAAITWSGGSTYYADSVKGRFTISRDNAKNTVYLQMNSLKPEDTAVYYCNARSYPDLYDYWGQGTQVTVSS”, the “polyreactivity (PSR sort gate)” value was “high polyreactivity”. In the case of “QVQLVESAGGLVQAGGSLRLSCAASGRTLTGNALGWYRQAPGKESELVAAITARGGSTKYADSVKGRFTISRDNAKNTVYFLMNSLKPEDTAVFYCAAGCWYYLHMDYWGQGTQVTVSS”, the “polyreactivity (PSR sort gate)” value is reported as “high polyreactivity”. With “QVQLVESAGGLVQAGGSLRLSCAASGRTLTRYTMGWYRQAPGKERELVAAITSGGSTYYADSVKGRFTISRDNAKNTVYLQKNSLKPEDTAVYYCNARTPWWSFSITEYGYWGQGTLVTVSS” the “polyreactivity (PSR sort gate)” value was “high polyreactivity”. With “QVQLVESAGGLVQAGGSLRLSCAASGSIFAGNVMGWYRQEPGKEWELVAAISRRGGRTYYADSVKGRFTISRDNAKNTVYLQMNSLKPEETAVYYCAARRDPVLCKSDYWGQGTQVTVSS” the “polyreactivity (PSR sort gate)” value was “high polyreactivity”. For “QVQLVESAGGLVQAGGSLRLSCAASGSIFKDYAMGWYRQAPGKERELVAAITSGTSTTYADSVKGRFTISRDNAKYTVYLPMNSLKPDDTAVYYCAADYYLRKTRFESWGQGTQVTVSP”, the “polyreactivity (PSR sort gate)” value was “low polyreactivity”. In the case of “QVQLVESAGGLVQAGGSLRLSCAASGSIFPGYAMGWYRQAPVKERELVATITWSGGSTYYADSVKGRFTISRDNAKNSVYLQMNILKPEDTAVYYCNADSNWYYQWNYYGLYDYWGQGTQVTVSS”, the “polyreactivity (PSR sort gate)” value is reported as “low polyreactivity”. For “QVQLVESAGGLVQAGGSLRLSCAASGSIFRLNALGWSRQQPGQVRELVAAITWSDSSTYYADSVKGRFTISRDTAKNTVYLQMNSLKPEDTAVSYCAGDPQSYKYDYWGQGTQVTVSS”, the “polyreactivity (PSR sort gate)” value was “low polyreactivity”. With “QVQLVESAGGLVQAGGSLRLSCAASGSIFVPNVMGWYRQAPGKERELVATITRSTSTYYADSVKGRFTISRDNAKNTVYLQMNSLKPEDTAVYYCAAVWEWYSKYTRFYYWGQGTQVTVSS” the “polyreactivity (PSR sort gate)” value was “high polyreactivity”. In the case of “QVQLVESAGGLVQAGGSLRLSCAASGSIFVRNAMGWYRQAPGKERELVARISSRGGSTYYADSVKGRFTISRDNAKNTVYLQMISLKPEDTAVYYSNRDRTWQTNDYWGQGTQVTVSS”, the “polyreactivity (PSR sort gate)” value is reported as “high polyreactivity”. In the case of “QVQLVESAGGLVQAGGSLRLSCAASGSILYKNAMGWYRQAPGKERELVAAIRSGGSTYYADSVKGRFTISRDNAINTVYLQMNSLKPEDTAVYYCYARTFSHGRYDYWGQGTQVTVSS”, the “polyreactivity (PSR sort gate)” value is reported as “low polyreactivity”. With “QVQLVESAGGLVQAGGSLRLSCAASGSTFRYYAMGWSRQAPGKESELVAVISTSGNTYYADSVKGRFTISRDNAKNSVYLQMNSLIPEDTAVYYCAARGVGGQISQEYDYWGKGTQVTVSS” the “polyreactivity (PSR sort gate)” value was “low polyreactivity”. For “QVQLVESAGGLVQAGGSLRLSCAASGSTFVTYDMGWYRQAPGKERELVAAIRYSDGSTYYADSVKGRFTISRDNAKNTVYRQMNSLKPEDTAVYYCAADLGNYDYYGYVRYDYWGQGTQVTVSS”, the “polyreactivity (PSR sort gate)” value was “low polyreactivity”. With “QVQLVESAGGLVQAGGSLRLSCAASGSTFYPNAMGWYRQAPGKERELVAAISRGTRTKYADSVKGRFTISRDNAKNTVYLQMNSMKPEDTAVYYCAPLTYQSYWSVDGYYYWGQGTQVTVSS” the “polyreactivity (PSR sort gate)” value was “high polyreactivity”. With “QVQLVESAGGLVQAGGSLRLSCADSGSISTVYAMGWYRPAPGKERELVAAISWSGGYTYYADTVKGRFTISRDNEKNTVYLQMNSVKPEDTAFYYCDAEGYLVGSRWGPCYGDYWGQGTQVTGSS” the “polyreactivity (PSR sort gate)” value was “high polyreactivity”. In the case of “QVQLVESAGGLVQAGGSLRLSCAHSGITYTRYAMGWYRHAPGKESELVAAISSGGRTNYADSVKGRFTISRDNAKNTVYLQMNTLKPEDTAVYYCNAAGHRWYPRYHYWGQGTQVTVSS”, the “polyreactivity (PSR sort gate)” value is reported as “high polyreactivity”. In the case of “QVQLVESAGGLVQAGGSLRLSCAPSGSTFYHNVMGWYSPAPGKERELVASIDTGDSTNYADSVKGRFTISRDNAKNTVYLQMNSLKPEDTAVYYCARSQAVYDGWFAKFGYWGQGTQVTVSS”, the “polyreactivity (PSR sort gate)” value is reported as “low polyreactivity”.
